{"source": "paper doi:10.1101/2020.06.09.143594", "about": "(bioRxiv, 2020)", "biological_target": "the molecule itself", "assay": "cross-linking"}
{"protein": "σ1 M332C, S370P, Q371E, S403C of the HeadΔSA mutant virus, on purified virions (natural protein, UniProt P04506 1-470, looked up) MDASLITEIRKIVLQLSVSSNGSQSKEIEEIKKQVQVNVDDIRAANIKLDGLGRQIADISNSISTIESRLGEMDNRLVGISSQVTQLSNSVSQNTQSISSLGDRINAVEPRVDSLDTVTSNLTGRTSTLEADVGSLRTELAALTTRVTTEVTRLDGLINSGQNSIGELSTRLSNVETSMVTTAGRGLQKNGNTLNVIVGNGMWFNSSNQLQLDLSGQSKGVGFVGTGMVVKIDTNYFAYNSNGEITLVSQINELPSRVSTLESAKIDSVLPPLTVREASGVRTLSFGYDTSDFTIINSVLSLRSRLTLPTYRYPLELDTANNRVQVADRFGCRTGTWTGQLQYQHPQLSWRANVTLNLMKVDDWLVLSFPEMTTNSIMADGKFVINFVSGLSSGWQTGDTEPCSTIDPLSTTFAAVQFLNNGQRIDAFRIMGVSEWTDGELEIKNYGGTYTGHTQVYWAPWTIMYPCNVR", "values": [{"measurement": "binding result", "value": "binds"}]}
